Source: patent publication US9988424 (DUKE UNIVERSITY, dated 2018)
Like-named read-outs stand apart in the source and are kept apart here.

Assays:
[1] = molecular target: 92TH023 gp120 (HIV-1)
[2] = molecular target: Con 6 gp120; test: ELISA, OD405
[3] = molecular target: B.9021 gp140C (HIV-1); test: ELISA, OD405
[4] = molecular target: B. 681-7 gp140C; test: ELISA, OD405
[5] = molecular target: T1, C.1086 gp140; test: ELISA, OD405
T1 construct: also called C.1086gp140C

[6] = molecular target: T2, B.62357 140C; test: ELISA, OD405
T2 construct: also called B.62357 gp140C

[7] = molecular target: T3, B.con gp140CF; test: ELISA, OD405
T3 construct: also called B.con.env03 gp140CF

[8] = molecular target: T4, G.con gp140CF; test: ELISA, OD405
T4 construct: also called G.con.env03 gp140CF

[9] = molecular target: T5, AE.97CNG2XF gp140CF (HIV-1); test: ELISA, OD405
T5 construct: also called E.97CNGX2F gp140CF

[10] = molecular target: C.CAP206 gp140CF.12 (HIV-1); test: ELISA, OD405
[11] = molecular target: B.040 gp140C; test: ELISA, OD405
[12] = molecular target: B. 684-6 gp140C; test: ELISA, OD405
[13] = molecular target: T6, B.HXB/BAL gp140CFI (HIV-1, UniProt P04578 33-680); test: ELISA, OD405
T6 construct: also called B.HxB/Ba gp140 CFI

[14] = molecular target: B.63521 gp140C; test: ELISA, OD405
[15] = molecular target: T7, AE.con gp140CF; test: ELISA, OD405
T7 construct: also called AE.con.env03 gp140CF

[16] = molecular target: AE.A244 V1V2 Tags (HIV-1); test: ELISA, OD405 at 10 ug/ml
[17] = molecular target: T8, AE.A244 gp120 delta 11 (HIV-1); test: ELISA, OD405 at 10 ug/ml
T8 construct: also called E.A244gp120Δ11; AE.A244 Δ11 gp120

[18] = molecular target: G.con gp140CF; test: ELISA, OD405 at 10 ug/ml
[19] = molecular target: T9, C.1086 gp140; test: ELISA, OD405 at 10 ug/ml
T9 construct: also called C.1086gp140C

[20] = molecular target: T6, B.HXB/BAL gp140CFI; test: ELISA, OD405 at 10 ug/ml
[21] = molecular target: AE.A244 V1V2 Tags (HIV-1); test: SPR, mAb captured on anti-Fc, V1/V2 tags injected
[22] = molecular target: T8, AE.A244 gp120 delta 11
[23] = molecular target: B.63521_V1V2 Tags; test: ELISA OD405nm, bar chart, antibody concentration not given
[24] = molecular target: B.040 gp140C; test: as above
[25] = molecular target: T10, A.9004SS V1V2 Tags; test: as above
T10 V1V2 tags construct: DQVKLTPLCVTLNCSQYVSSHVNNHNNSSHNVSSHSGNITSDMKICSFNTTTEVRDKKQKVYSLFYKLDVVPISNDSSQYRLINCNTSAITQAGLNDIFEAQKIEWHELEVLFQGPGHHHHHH

[26] = molecular target: A.Q23 V1V2 tags (HIV-1); test: as above
[27] = molecular target: T11, G.con 140CF; test: as above
T11 construct: also called G.con gp140CF; G.con.env03 gp140CF

[28] = molecular target: T12, B.62357 140C; test: as above
T12 construct: also called B.62357 gp140C

[29] = molecular target: B.9021 gp140C (HIV-1); test: as above
[30] = molecular target: T13, Con 6 120; test: as above
T13 construct: also called Con 6 gp120

[31] = molecular target: D.9009SA V1V2 Tags; test: as above
[32] = molecular target: T14, AE.con env03 40CF; test: as above
T14 construct: also called AE.con gp140CF; AE.con.env03 gp140CF

[33] = molecular target: T15, D.9009SA V1V2 Tags; test: ELISA, OD405
T15 Env construct: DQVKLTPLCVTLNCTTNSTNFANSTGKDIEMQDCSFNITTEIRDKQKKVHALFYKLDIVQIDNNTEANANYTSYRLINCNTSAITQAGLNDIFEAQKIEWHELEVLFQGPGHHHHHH

[34] = molecular target: J08 A.92RW020V1V2 (HIV-1); test: SPR (BIAcore), mAb captured on anti-Fc surface, V1V2 protein injected as analyte, Synagis surface subtracted, global 1:1 Langmuir fit
[35] = molecular target: AE.A244 V1V2 Tags (HIV-1)

B1: PG16 (antibody, V domains shown)
VH: QEQLVESGGGVVQPGGSLRLSCLASGFTFHKYGMHWVRQAPGKGLEWVALISDDGMRKYHSDSMWGRVTISRDNSKNTLYLQFSSLKVEDTAMFFCAREAGGPIWHDDVKYYDFNDGYYNYHYMDVWGKGTTVTVSS
VL: QSALTQPASVSGSPGQTITISCNGTSSDVGGFDSVSWYQQSPGKAPKVMVFDVSHRPSGISNRFSGSKSGNTASLTISGLHIEDEGDYFCSSLTDRSHRIFGGGTKVTVL
notes: also called mAb PG16; bnAb PG16
For B1, which IC50 [1] is on record?
Its IC50 is 10 to 100 nM.

B2: CH58 reverted unmutated ancestor antibody (antibody, V domains shown)
VH: EVQLVQSGAEVKKPGESLKISCKGSGYSFTSYWIGWVRQMPGKGLEWMGIIYPGDSDTRYSPSFQGQVTISADKSISTAYLQWSSLKASDTAMYYCARLGGRYYYDSSGYYYFDYWGQGTLVTVSS
VL: NFMLTQPHSVSESPGKTVTISCTRSSGSIASNYVQWYQQRPGSSPTTVIYEDNQRPSGVPDRFSGSIDSSSNSASLTISGLKTEDEADYYCQSYDSSSWVFGGGTKLTVL
notes: also called CH58 RUA; CH58_RUA
Which results are given for B2?
binding result [2]: no binding (tested: 10 ug/ml); binding result [3]: no binding (tested: 10 ug/ml); binding result [4]: no binding (tested: 10 ug/ml); binding result [5]: no binding (tested: 10 ug/ml); binding result [6]: no binding (tested: 10 ug/ml); binding result [7]: no binding (tested: 10 ug/ml); binding result [8]: no binding (tested: 10 ug/ml); binding result [9]: no binding (tested: 10 ug/ml); binding result [10]: no binding (tested: 10 ug/ml); binding result [11]: no binding (tested: 10 ug/ml); binding result [12]: no binding (tested: 10 ug/ml); binding result [13]: no binding (tested: 10 ug/ml); binding result [14]: no binding (tested: 10 ug/ml); binding result [15]: no binding (tested: 10 ug/ml)

B3: PG16 reverted unmutated ancestor antibody (antibody, V domains shown)
VH: QVQLVESGGGVVQPGRSLRLSCAASGFTFSSYGMHWVRQAPGKGLEWVAVISYDGSNKYYADSVKGRFTISRDNSKNTLYLQMNSLRAEDTAVYYCAREAGGPIWHDDVKYYDFNDGYYYYYYMDVWGKGTTVTVSS
VL: QSALTQPASVSGSPGQSITISCTGTSSDVGSYNLVSWYQQHPGKAPKLMIYEVSKRPSGVSNRFSGSKSGNTASLTISGLQAEDEADYYCCSLTDRSHRIFGGGTKLTVL
notes: also called PG16 RUA; PG16_RUA
Does B3 bind [16]?
Result: no binding (tested: 10 ug/ml)

Does B3 bind [17]?
Result: no binding (tested: 10 ug/ml)

Does B3 bind [18]?
Result: no binding (tested: 10 ug/ml)

Does B3 bind [19]?
Result: no binding (tested: 10 ug/ml)

Does B3 bind [20]?
Result: no binding (tested: 10 ug/ml)

B4: CH59 (antibody, V domains shown)
VH: EVQLVESGGGLVQPGRSLRLSCAASGFTFDDGAMHWVRQAPGKGLEWVSGISWNSNIIAYADSVKGRFTISRDNAKNSLYLEMNSLRVEDTALYYCAKDSPRGELPLNYWGQGTLVTVSS
VL: SYELTQPPSVSVSPGQTARITCSGDALPKNYAYWYQQKSGQAPVLVIYEDSKRPSGIPERFSGSSSGTMATLTISGAQVEDEADYYCYSTDSSGNHRVFGGGTKLTVL
notes: also called mAb CH59
For B4, which Kd [21] is on record?
Its Kd is 1 nM.

What about the koff [22] of the same binder?
The koff was 0.00013 s⁻¹.

And the kon [22]?
Its kon is 58300 M⁻¹ s⁻¹.

Does B4 bind [23]?
Result: no binding (tested: not given)

Does B4 bind [24]?
Result: no binding (tested: not given)

Does B4 bind [25]?
Result: binds

Does B4 bind [26]?
Result: no binding (tested: not given)

Does B4 bind [27]?
Result: no binding (tested: not given)

Does B4 bind [28]?
Result: no binding (tested: not given)

Does B4 bind [29]?
Result: no binding (tested: not given)

Does B4 bind [30]?
Result: no binding (tested: not given)

Does B4 bind [31]?
Result: binds

Does B4 bind [32]?
Result: binds

B5: 697D (antibody, V domains shown)
VH: QVQLVQSGAEVKKPGSSVKVSCKASGGNFNTYTISWVRQAPGQGLEWMGRIIPIFGIVNPAQKFPGRVTINVDKSTNTAYMELSSLRSEDTAVYYCATSGVGLHFGYFDYWGQGTQVTVSS
VL: QSVLTQPPSVSGAPGQRVTISCTGSSSNIGAHYDVHWYQQLPGTAPKLLIYGNSNRPSGVPDRFSGSKSGTSASLAITGLQAEDEADYYCQSYDSSLSGYVFGTGTKVTVL
notes: also called mAb 697D; V2 conformational mAb 697D
Does B5 bind [33]?
Result: no binding (tested: 10 ug/ml)

What about the Kd [34] of the same binder?
The Kd was 57.5 nM.

And the koff [34]?
Its koff is 0.008 s⁻¹.

What about the kon [34] of the same binder?
The kon was 140000 M⁻¹ s⁻¹.

What about the Kd [35] of the same binder?
The Kd was 117 nM.

What about the koff [35] of the same binder?
The koff was 0.0024 s⁻¹.

And the kon [35]?
The kon was 20000 M⁻¹ s⁻¹.
